From US20230137139A1, “BIOSYNTHESIS OF CANNABINOIDS AND C[…]” (priority 2020, published 2023)

Tested on: CBCA, THCA, and CBDA production
Assay: In vivo TS activity assay, Example 1 CBCAS library screen, cultures fed olivetolic acid, LC-MS
Type: cell-based, S. cerevisiae
Settings: primary and secondary screen
Excerpt: To identify CBCAS genes that can be functionally expressed in host cells, a library of approximately 3000 candidate CBCAS genes was designed based on internal codebases and domain knowledge, sampled across enzyme families, ecological niches, and structural homologies. Protein sequences were recoded in silico for expression in S. cerevisiae and synthesized in the integrative yeast expression vector shown in FIG. 5. Each candidate enzyme expression construct was transformed into an S. cerevisiae CEN.PK strain that also expressed a prenyltransferase enzyme capable of catalyzing reaction R^4 in FIG. 2. Strain t616313, expressing GFP, was included in the library screen as a negative control for enzyme activity. […]
An assay to detect TS activity was conducted as follows: each thawed glycerol stock of candidate CBCAS transformants was stamped into a well of YEP+4% dextrose media. […] Optical measurements were taken on a plate reader, with absorbance measured at 600 nm and fluorescence at 528 nm with 485 nm excitation. […] CBCA, THCA, and CBDA production in the samples was quantified via liquid chromatography-mass spectrometry (LC-MS). […]

B1: putative C. sativa CBCAS enzyme: previously disclosed putative C. sativa CBCAS (SEQ ID NO: 15) (protein)
chain: MNCSTFSFWFVCKIIFFFLSFNIQISIANPQENFLKCFSEYIPNNPANPKFIYTQHDQLYMSVLNSTIQNLRFTSDTTPKPLVIVTPSNVSHIQASILCSKKVGLQIRTRSGGHDAEGLSYISQVPFAIVDLRNMHTVKVDIHSQTAWVEAGATLGEVYYWINEMNENFSFPGGYCPTVGVGGHFSGGGYGALMRNYGLAADNIIDAHLVNVDGKVLDRKSMGEDLFWAIRGGGGENFGIIAACKIKLVVVPSKATIFSVKKNMEIHGLVKLFNKWQNIAYKYDKDLMLTTHFRTRNITDNHGKNKTTVHGYFSSIFLGGVDSLVDLMNKSFPELGIKKTDCKELSWIDTTIFYSGVVNYNTANFKKEILLDRSAGKKTAFSIKLDYVKKLIPETAMVKILEKLYEEEVGVGMYVLYPYGGIMDEISESAIPFPHRAGIMYELWYTATWEKQEDNEKHINWVRSVYNFTTPYVSQNPRLAYLNYRDLDLGKTNPESPNNYTQARIWGEKYFGKNFNRLVKVKTKADPNNFFRNEQSIPPLPPRHH
  CBCAS activity / CBCA production: not found to be active
